This note sets out measurements from the Human Domainome abundance scans (Beltran et al. 2025).

± gives the uncertainty stated by the source.

To fix the notation:
B1: Zinc finger MYM-type protein 3, residues 589 to 668; numbered along this chain, Q14202 (parent)
chain: LSCHYCHSLFSGKPEVLDWQDQVFQFCCRDCCEDFKRLRGVVSQCEHCRQEKLLHEKLRFSGVEKSFCSEGCVLLYKQDF

Variants of B1 are the subject of the series. Description: abundance fitness (aPCA) (normalised: wild type 0, dead -1); higher = more abundant; growth selection in yeast, the domain comes from the species named. The following applies: Homo sapiens.
As for L75P, the abundance fitness was -0.268 ± 0.2.
Under L75T stands -0.078 ± 0.12; under L75V, -0.551 ± 0.15.
Under L75H stands -0.295 ± 0.3; under L75W, -0.561 ± 0.13; under L75N, 0.227 ± 0.14.
Under S66H stands 0.295 ± 0.38; under S66L, 0.068 ± 0.12.
As for S66P, the abundance fitness is -0.834 ± 0.32.
In the case of S66M, the abundance fitness was -0.002 ± 0.28.
Under F10T stands -0.16 ± 0.049.
With F10S, the abundance fitness is -0.316 ± 0.053.
Under F10A stands -0.316 ± 0.048.
Under F10H stands -0.043 ± 0.082; under F10G, -0.408 ± 0.046; under L38I, 0.063 ± 0.16.
Under K65P stands 0.325 ± 0.49; under K65Q, -0.692 ± 0.27; under K65V, -0.317 ± 0.19.
As for S2A, the abundance fitness is 0.106 ± 0.051.
In the case of S2Y, the abundance fitness was 0.293 ± 0.056.
With S2R the figure was 0.12 ± 0.042; with S2T, -0.051 ± 0.068.
Consider S2N, for which the abundance fitness was determined as 0.48 ± 0.055.
With E51H the figure was 0.675 ± 0.42.
With E51V the figure was -0.143 ± 0.12.
Under E51Q stands 0.003 ± 0.41.
Regarding E51R, the abundance fitness was -0.198 ± 0.084.
With E51C the figure was 0.227 ± 0.23; with E51P, 0.127 ± 0.16; with E70A, -0.096 ± 0.15.
With E70T the figure was -0.048 ± 0.21.
With E70S the figure was 0.067 ± 0.12; with F80P, 0.525 ± 0.22; with F80M, 0.294 ± 0.26.
For the variant L58A, the abundance fitness is 0.158 ± 0.089.
As for L58G, the abundance fitness is 0.012 ± 0.082.
Under L58H stands 0.542 ± 0.28.
In the case of L58T, the abundance fitness is -0.364 ± 0.18.
Under L58W stands -0.23 ± 0.14.
With F26Q, the abundance fitness is -0.482 ± 0.069.
With F26V the figure was -0.515 ± 0.048.
With F26G the figure was -0.603 ± 0.058; with L17W, -0.135 ± 0.062; with L17S, -0.262 ± 0.048.
With C28L the figure was -0.758 ± 0.059; with C28N, -0.16 ± 0.12; with C28W, -0.973 ± 0.094.
As for C28R, the abundance fitness was found to be 0.074 ± 0.039.
With C28S, the abundance fitness is -0.021 ± 0.044.
With C28T the figure was 0.11 ± 0.047.
With Y5N the figure was 0.021 ± 0.071.
Under Y5C stands 0.01 ± 0.055; under Y5H, -0.066 ± 0.055.
Take Y5I: the abundance fitness is -0.061 ± 0.062.
On to Y5Q, for which the abundance fitness worked out at 0.203 ± 0.048.
Regarding Y5G, the abundance fitness was found to be 0.156 ± 0.037.
Under Y5M stands 0.313 ± 0.047.
With K77E the figure was -0.406 ± 0.18; with K77S, -0.495 ± 0.23; with C31W, -1.26 ± 0.21.
With C31S the figure was -0.986 ± 0.13; with C31D, -0.545 ± 0.12.
For the variant C31A, the abundance fitness is -0.655 ± 0.072.
Under Q25L stands -0.163 ± 0.046.
With Q25F the figure was -0.035 ± 0.073; with Q25A, -0.044 ± 0.04; with Q25W, 0.033 ± 0.046.
With Q25Y the figure was 0.025 ± 0.059.
On to Q25S, for which the abundance fitness was 0.016 ± 0.044.
With F60L the figure was 0.103 ± 0.11.
Turning to F60C, the abundance fitness was -0.503 ± 0.29.
With F60V the figure was 0.204 ± 0.093.
Regarding F60E, the abundance fitness was 0.256 ± 0.1.
With R39K the figure was -0.146 ± 0.33; with R39Q, 0.288 ± 0.14.
With R39G the figure was 0.424 ± 0.11; with K13Q, 0.039 ± 0.054.
Under K13S stands -0.062 ± 0.053; under K13H, -0.043 ± 0.077.
Consider K13Y, for which the abundance fitness was -0.389 ± 0.14.
With C72R the figure was -0.781 ± 0.17; with C72Q, -0.317 ± 0.41.
Under C72S stands -0.935 ± 0.29; under C72A, -0.525 ± 0.2; under C72W, -0.53 ± 0.17.
Turning to C72K, the abundance fitness was -0.33 ± 0.24.
Consider C48R, for which the abundance fitness was -0.553 ± 0.12.
Under C48A stands -0.845 ± 0.16; under C48S, -0.561 ± 0.43; under R59E, 0.386 ± 0.075.
With R59K, the abundance fitness is 0.419 ± 0.13.
With R59T the figure was 0.631 ± 0.14; with R59W, 0.336 ± 0.14.
Take C6F: the abundance fitness was -1.2 ± 0.35.
Under C6V stands -0.995 ± 0.077.
Under C6W stands -0.978 ± 0.12; under C45P, -1.1 ± 0.46; under C45R, -0.742 ± 0.13.
Under C45E stands -1.07 ± 0.29; under C45G, -0.603 ± 0.095.
Regarding C45A, the abundance fitness was -0.666 ± 0.2.
As for E64C, the abundance fitness is -0.165 ± 0.42.
With E64T the figure was -0.238 ± 0.31; with E64R, -0.692 ± 0.16.
With E64H the figure was -0.355 ± 0.34.
With E64A the figure was -0.571 ± 0.23.
For C32N, the abundance fitness was -0.239 ± 0.14.
Regarding C32P, the abundance fitness is -0.574 ± 0.097.
Turning to C32Y, the abundance fitness turned out to be 0.067 ± 0.059.
Under D21K stands 0.086 ± 0.051; under D21N, 0.027 ± 0.062.
For the variant D21P, the abundance fitness is -0.146 ± 0.053.
With D21C the figure was -0.204 ± 0.07.
D21Y: the abundance fitness is -0.386 ± 0.089.
For the variant D21E, the abundance fitness is -0.114 ± 0.056.
Under F24K stands 0.084 ± 0.045; under F24T, -0.033 ± 0.048; under F24C, 0.112 ± 0.057.
Under F24W stands 0.051 ± 0.045; under V23A, 0.023 ± 0.041; under V23H, 0.111 ± 0.051.
Under V23K stands 0.268 ± 0.055.
In the case of V23S, the abundance fitness came to 0.287 ± 0.047.
With V23D the figure was -0.085 ± 0.05; with V23N, 0.169 ± 0.056.
Under V23T stands 0.175 ± 0.047; under V23R, 0.294 ± 0.039.
With V23G the figure was -0.003 ± 0.042.
Take V63S: the abundance fitness was -0.255 ± 0.2.
Under V63T stands -0.271 ± 0.28.
With V63D the figure was -0.175 ± 0.21; with V63E, 0.175 ± 0.11; with V63A, -0.109 ± 0.13.
Under D34T stands -0.178 ± 0.056; under D34I, -0.18 ± 0.11; under E15I, 0.093 ± 0.054.
Regarding S61R, the abundance fitness is -0.137 ± 0.11.
As for S61D, the abundance fitness was 0.665 ± 0.13.
Take S69R: the abundance fitness is -0.456 ± 0.11.
Under S69E stands -0.341 ± 0.15.
Under S69Q stands -0.638 ± 0.42.
With S69C the figure was 0.093 ± 0.19.
For S69G, the abundance fitness was -0.64 ± 0.1.
Under F35Y stands -0.177 ± 0.1.
As to F35G, the abundance fitness is -0.317 ± 0.042.
With F35M the figure was -0.071 ± 0.047.
With F35A the figure was -0.079 ± 0.041; with F35V, -0.587 ± 0.048.
With E46P the figure was 0.996 ± 0.28.
In the case of E46W, the abundance fitness was -0.245 ± 0.14.
Under G71M stands 0.721 ± 0.24; under G71T, 0.414 ± 0.11; under S8I, 0.309 ± 0.065.
Under S8H stands 0.188 ± 0.074.
Under S8A stands 0.321 ± 0.039; under S8T, 0.246 ± 0.05; under S8Q, 0.397 ± 0.053.
On to S8V, for which the abundance fitness was 0.374 ± 0.04.
With K57S the figure was -0.361 ± 0.15; with K57C, -0.433 ± 0.41; with K57T, 0.05 ± 0.2.
For K52E, the abundance fitness was -0.785 ± 0.23.
Consider K52S, for which the abundance fitness is -0.371 ± 0.16.
Under K52C stands 0.546 ± 0.21; under K52M, -0.118 ± 0.28.
On to E56H, for which the abundance fitness is -0.161 ± 0.32.
